Data reported in the DeepSol protein solubility set.

Test: soluble on expression in E. coli; label from the status in PepcDB or PDB records

| Sequence | soluble on expression in E. coli |
| --- | --- |
| MTENVEYIRVLLKSSQAEVQMLREQNEFRDDLLKMFKVKLEVNALNNLPVRRNLSVEISNLETKKLKTEIAFLKEELGREGKKLTIANTVHEQLKKDLEAEKRNSMFLSELLTFYQNGHQPQLPAEDQFVDFLQTETRSVKEALKEKEEEVKRLLVDMEGKTFQNLTEKGRMEEEMNDAKREAQILRNEMKSLQKNMTAKENELLGYLRDASETHTEMQKDYKIQILELQRRNRILERHLDNIQ | not soluble |
| MIEKDVVQILKAVSEFYPGRFQPDDLKGTVKAWHRVLAEYELEEIMNNLTDYAKVNKFPPTVSDLLKAQSEQRDRFIPSYEETQRILKEQAEAEEAARNDPDLQAAQEENMRKIREMLGINRGGAR | soluble |
| MRIVEEMVGKEVLDSSAKVIGKVKDVEVDIESQAIESLVLGKGGISEGLGLSKGETIVPYEMVKKIGDKILLKGPEE | not soluble |
| MARPKTQSERMIILERIIGLVKEQGRITTNDVVAIFGVHRTTAEKYLRIALERGGFIRHGRCGIFRDQRAVIDYDLRRYSSSQVTGFSALPVLEKSPVMQVYGASKMSINKGGAQ | not soluble |
| MSRLTELLRQVRKADAQLGTDLEAEVAALTKRRTFGLVFEQHQPEAVELPGRVVRRGDKVRVLPPRGGTKAGDQRLWRTTRIECVDGQRVAHLAELDVEEPETRAVLADDVVVVAEFRDRIYPGLVETGRVERGGDKPFHTVVNAENYHALEMLTYTHRHSIDAIYIDPPYNTGARDWKYDNDYVASDDDYRHSKWLAFMERRLKICRELMRSDATLVATIDEHEVNRLGVLLDQLFPESTRQLVTIVNNPKGVTQGYLSRVEEYAFFVFGPDARIGSVDDDLLTHRDMADAEGELQRPRWKGLLRSGDDSLRADRKDMFYPVWFDESTGRLSHAGEALPLDETPDFSPQDGLTPIWPIRRDMKEGPTRAAPRRSILDYALHPHL | not soluble |
| MGSDKIHHHHHHMTKHASARKFPPRARFLPKCEPSLYHERRSVSARASGPTTVIDPKTVTDVTNDTLSHYALPAYPAEQFCVDIGANAGDPIGILDDLVMDDIYELTSDARLRRLAFGVSTEGTITLHSESEMGQDGARLHLDCAVTLMPDLGSAIEALIAVEVDNEGLIARLYLIPQAPLAQGTGYRLVRASREPVWTRLAQLSCVAFSRGTHITMGTGEQRPIEMLRAGDRVLTRNSGARRITWVGHTTVRAVGEMAPILIRQGALNNARDLLVSPDHRLMIYQRSDALGAGRNELMIRARDLVNGDSVVVQDGGFVDYYQILFDRHHIIYAEGIAAESMLVDPVTRPALPEEVQQRLTQPRRHGTRGDHGLEIRRPMLSHPDTVDLLKRASLR | not soluble |
| MVTDHGYKCRITNIVPLSEHEKLFQLRIVDPRERELFTFRPGQFLMLEVPGYGEAPISISSATSNREFIELCIRKAGHVTSALFEAKQGAFVAVRGPFGTSFPMEAMQDHDVLLIAGGLGIAPLRAPLFWINDHRDHYRNVSFLYGAKEPSQMLFTYQFEEWKTVSHIDLHTIVEKPDDQWTGRTGMITLLFDEITIDPKNTWAIVCGPPVMFKFVCTHLDKLGIPMNRMFVSLERHMNCGMGKCCRCMVGSTFTCLDGPVFDYWSVMNLKEAI | not soluble |
| MSVSFMELGSADSAEAAANKVAHHVEQMMETSDFFDRLTQHGTTPVSGLGEKFYVKGAPEFVSTRRIPIPGELQMQMSNIHSEFSMGFFTQISRVWVVIDNNLYMWNYETNDDLAFFDSSDAAILKVSLVNIKPGVFEPEIQYGLVVGTISDICLYPVFDFVENGASSISIDSKRCFKIALDGATVNDISYTSNGRVFYTADDQLFEFVYEKQNGWFGSTNHKCRGVNQTASILGTLISLPFFGSSKEPLDQITIDKSRNIMYLLGRAGTVSVWDLGADGAACAKFLSVPISKIAHEAHILTQFGHDETSFHSITSIKALEASQSAALNLVATTAKGVRLYFSVSTGPQSTMAMFNNSGTPNERNRPQTSVRPQCLRVAHVRFAPGVTPASIYGDGPNGVSVVYADECTRL | not soluble |
| MGSDKIHHHHHHMIKIETVLDILKKDGLFREIIDQGHYHYNYSKVIFDSISYDSRKVTEDTLFFAKGAAFKKEYLLSAITQGLAWYVAEKDYEVGIPVIIVNDIKKAMSLIAMEFYGNPQEKLKLLAFTGTKGKTTAAYFAYNILSQGHRPAMLSTMNTTLDGETFFKSALTTPESIDLFDMMNQAVQNDRTHLIMEVSSQAYLVKRVYGLTFDVGVFLNISPDHIGPIEHPSFEDYFYHKRLLMEKSRAVIINSDMDHFSVLKEQVEDQDHDFYGSQFDNQIENSKAFSFSATGKLAGDYDIQLIGNFNQENAVAAGLACLRLGASLEDIKKGIAATRVPGRMEVLTQKNGAKVFIDYAHNGDSLKKLINVVETHQTGKIALVLGSTGNKGESRRKDFGLLLNQHPEIQVFLTADDPNYEDPMAIADEISSYINHPVEKIADRQEAIKAAMAITNHELDAVIIAGKGADCYQIIQGKKESYPGDTAVAENYL | not soluble |
| MGSDKIHHHHHHMKQMKIPATYMRGGTSKGVFFALKDLPLNAQQPGPARDALLLRVIGSPDPYGKQTDGMGGATSSTSKTVILDKSQRDDHDVDYLFGQVAIDKPFVDWSGNCGNLTAAVGAFAITQGLVDSAKIPDNGIAVVKIWQANINKTIIAHVPMVDGEVQELGDFELDGVTFPAAEVLVEFVDPADGEGDMFPTGNLVDKLEVPGEPVFDATFINAGIPTIFLKAEQLGYEGTELQEAINGDAAALERFETIRAHGALQMGLIQSLDEAAGRQHTPKIAFVAPAKAYTSSSGKQIAAEEIDLHVRALSMGKLHHAMMGTAAVAIGTAASIPGTLVNQAAGGQARESVRFGHPSGTLKVGAKASEQEGRWQVEKVSMSRSARVLMQGWVCVPESLG | not soluble |
| MLTNCASKTLAAVRANIRAIATSSARASDNLFVHRDTPEDNPNIPFEFTAENKKRVEAILSIYPEGHKRGAMIPLLDLAQRQYGWLPISAMHKVAEILQLPNMRVYEVATFYTMFMRKPTGKYHIQVCTTTPCWLRGSDDILETCKKQLGIGVGDTTKDRKFTISEVECLGACVNAPMVAINDDYYEDLTSKDMQDILNDLKADKISPPGPRNGRFASEPKGEPTSLSEEPKGPGFGLQAGL | not soluble |
| MAHHHHHHMTACSARAQAAAAVHTVVVSLTARREWWKHTCALDSASVFIVHTSDCPPPNRYTARAYPLRCEARLSLHVYANLPAPVSRQCITFLSFRGIYLSPLFCCPPLRHSFHAPAHQFQPPPPSSPFPTLPTRATQHHHHCSHTRVHQICPAVPSLSALSNILTVSAMSAKTAAAPSERSFVDRFVRSHAGAATAAGILEIGFFHPFDTIAKRLMANKGSIMRGSTGETAANLNIIVFKKHADAGFLRKVVYLYPGSLYATVYKVFQRVYKFAGQPLVRDFLSSNYRDGFKRYFGEAHKVMEDATAGCLIGLGEVFLLPLDRLKVLSQTNEAAMRSGLLPLLRQEGFRGMYAGTVVTMCRNAPGSFCLFGGTAFTKGYIFGLSDYRHATLFQNMCASTVGACVAIAISNPMDVVKTRVQQQTAAERCSGMAMATAMLKEEGMLSFFKGLTPKIIASAPKLIFAYTMTEFFFKVMNDSKKH | not soluble |
| MADAEGDPLQAFWTQVVRLRDLLKFDFYFADSAAFHQNVAEEMSWHADWEQQVRAGRDGIETLMRAKRPLLADAMLRPYFEAYTIVADVLRDAPAEIAEKDLTKLALGVGQQYVAQGRVRNNESVSALLFATARQVAADQGLLEHGPDLMEQRRAFRDELRGILRDLDTVDRYARELFAARERERRTKRDEAVLEHHHHHH | not soluble |
| MGSDKIHHHHHHMREDFTNEIVTESLNEAGILVEKPSEIRRHFDDLQFDSRKVTKKNTLFVVKGAFKIEYLTASLLDKISGIVTSRKEKINIPNLPHWIVSNSQIALAVLSAEFFGHPEKKLKILGITGTKGKTSSTYMAYSLLDRLTNHQTAMFSTIDTFLGRGIKFKSELTTPESYELFSNMKKALDNGNKYLVMEVSSQSYLKNRVFGIHFKVGAFLNISPDHIGINEHPTFADYLAHKKMLAENSDVFVSNIDDAHGQEFIDHAKSFGAKTVSVSENKKADVNFHIKKADLDESIFYLTEKGNSQEFLLDIPGVFNIYNASVAIAMVREMGFKPEKAKKALAELQIPGRMVKIKTKSHGLIIVDYAHNGQAVTTLLTFLKSQHQGGKIIIVLGSPGDKGEDRRSQFGEVISKFVDVAYLTTDDPGTEDPHQINNQIRKAISNPNVELHEELDRSKAIQEAIKKANINDLVVLAAKGEDAFQKTNHVDVPYLGDKKVAEEFLAEIEKV | not soluble |
